Test results published in publication PMC11444262, “Direct targeting of host microtubule and actin cytoskeletons by a chlamydial pathogenic effector protein” (Journal of Cell Science, 2024).

Biological target: Taxol-stabilized microtubules (UniProt P02550 1-451)
Assay: co-sedimentation; equilibrium binding of 100 nM GST–CPn0572^595-755 with increasing amounts of Taxol-stabilized MTs; apparent Kd
Settings: both partners purified

Sequence of Taxol-stabilized microtubules (P02550 whole entry, chain 1 of 2): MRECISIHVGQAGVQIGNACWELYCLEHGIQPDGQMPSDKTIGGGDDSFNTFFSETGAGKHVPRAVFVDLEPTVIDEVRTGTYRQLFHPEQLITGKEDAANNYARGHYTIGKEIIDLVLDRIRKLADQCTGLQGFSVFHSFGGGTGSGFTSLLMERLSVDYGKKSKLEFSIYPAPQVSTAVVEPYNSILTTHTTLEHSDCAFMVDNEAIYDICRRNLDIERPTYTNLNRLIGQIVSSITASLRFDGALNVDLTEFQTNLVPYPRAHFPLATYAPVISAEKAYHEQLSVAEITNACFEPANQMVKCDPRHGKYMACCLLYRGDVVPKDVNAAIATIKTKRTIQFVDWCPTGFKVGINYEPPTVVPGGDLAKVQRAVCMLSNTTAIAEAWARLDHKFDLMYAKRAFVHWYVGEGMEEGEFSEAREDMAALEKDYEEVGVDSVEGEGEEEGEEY
Sequence of Taxol-stabilized microtubules (P02554 whole entry, chain 2 of 2, further chain): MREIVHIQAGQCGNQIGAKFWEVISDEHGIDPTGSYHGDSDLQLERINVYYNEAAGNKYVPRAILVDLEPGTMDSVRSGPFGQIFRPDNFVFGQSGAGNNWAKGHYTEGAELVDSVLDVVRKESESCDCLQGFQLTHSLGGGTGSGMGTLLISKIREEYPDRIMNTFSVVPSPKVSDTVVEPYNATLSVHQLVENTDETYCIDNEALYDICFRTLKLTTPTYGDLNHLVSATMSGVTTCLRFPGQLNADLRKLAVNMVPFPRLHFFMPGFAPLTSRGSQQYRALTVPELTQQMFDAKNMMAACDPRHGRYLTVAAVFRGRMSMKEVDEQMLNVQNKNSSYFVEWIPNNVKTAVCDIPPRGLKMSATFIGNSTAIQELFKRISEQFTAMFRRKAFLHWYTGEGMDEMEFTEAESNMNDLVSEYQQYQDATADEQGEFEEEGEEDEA

B1: GST–CPn0572^595-755 (domain or fragment, Chlamydia pneumoniae (Cpn GiD), UniProt Q9Z7Y1 595-755, looked up)
chain: VATTITPQARTASTSTTSIGTGTESTSTTSTGTGTGSVSTQSTGVGTPTTTTRSTGTSATTTTSSASTQTPQAPLPSGTRHVATISLVRNAAGRSIVLQQGGRSQSFPIPPSGTGTQNMGAQLWAAASQVASTLGQVVNQAATAGSQPSSRRSSPTSPRRK
notes: Cloned into a modified pGEX-5X-1 in which the factor Xa site is replaced by a TEV protease site; source: E. coli Rosetta (DE3), purified (glutathione agarose beads)
Kd: 70 nM
